This assay deals with PfCSP full length (Plasmodium falciparum (isolate NF54), UniProt P19597). Nature of the assay: ELISA AUC. On the technique in general: In an ELISA, binding on a coated surface is turned into a signal by an enzyme label.

For 16 molecules, binding score results are on record in paper PMC10720262 (2023).

Changes are numbered by the printed parent chain.

Sequence of PfCSP full length (P19597 20-375): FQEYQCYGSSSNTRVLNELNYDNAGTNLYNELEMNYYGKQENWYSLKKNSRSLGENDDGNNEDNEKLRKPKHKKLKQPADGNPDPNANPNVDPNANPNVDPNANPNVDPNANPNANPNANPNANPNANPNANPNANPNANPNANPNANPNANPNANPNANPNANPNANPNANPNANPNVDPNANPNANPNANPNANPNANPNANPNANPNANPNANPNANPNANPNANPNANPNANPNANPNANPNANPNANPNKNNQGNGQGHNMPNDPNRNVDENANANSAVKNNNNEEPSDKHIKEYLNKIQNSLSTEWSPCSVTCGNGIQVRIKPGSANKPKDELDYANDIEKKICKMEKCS

B1: CL-511862 (antibody, V domains shown)
VH: QVQLVESGGGVVQPGKSLRLSCAASGFSFSSSGMHWVRQAPDKGLEWVAIIWYDGSHKFYADSVKGRFTISRDNSDNTLFLQMDSLRAEDTAVYYCVRAYPTSYNGNYDKYGMDVWGQGTTVTVSS
VL: DIQMTQSPSTLSASVGDRVTIACRASQSISTWLAWYQQKPGKAPKLLIYKASTLESGVPSRFSGSGSGTEFTLTISSLQPDDFATYYCQQFTFYWTFGQGTKVEIK
modifications: peptides N-terminally acetylated and C-terminally amidated
In turn, B1 gave a binding score of 2.53.

B2: CL-508758 (antibody, V domains shown)
VH: QVQLVESGGGVVQPGRSLRLSCAASGFTFSNYGMHWVRQTPGRDLEWVAIIWYDGSYKFYADSVKGRFSISRDNSKNTLNLEMKSLRVEDTAVYYCAKAYDTSSDDKYGMDVWGQGTTVTVTS
VL: B1 VL with A22T, T31I, K50R, T53D, E70G, F91Y, T92N, F93S
modifications: peptides N-terminally acetylated and C-terminally amidated
B2 gave a binding score of 2.17.

B3: CL-512319 (antibody, V domains shown)
VH: QVQLVESGGGVVQPGRSLRLSCAASGFTFSNFGMHWVRQAPGKGLEWVAVIWYDGSHKFYADSLKGRFTISRDNSKNTLYLQMNNLRAEDTAVYYCARAHPVTTDYDKYGMDVWGQGTTVTVSS
VL: B1 VL with A13S, A22T, T31I, Y36I, T53S, T92Y, F93S, Q99L
modifications: peptides N-terminally acetylated and C-terminally amidated
B3 registered a binding score of 2.08.

B4: CL-447563 (antibody, V domains shown)
VH: QVQLVASGGGVVQPGRSLRLSCAASGFTFSNYGMHWVRQAPGKGLEWVAIIWYDGSKKYYSDSVKGRFTISRDNSKNTLYLQMNSLRAEDTAVYYCARAYGSGSYSDDYYGMDVWGQGTTVTVSS
VL: B1 VL with A22T, T53N, F91Y, T92Y, F93S
modifications: peptides N-terminally acetylated and C-terminally amidated
Take B4: the binding score stood at 2.5.

B5: CL-459075 (antibody, V domains shown)
VH: B4 VH with A49S
VL: B1 VL with A22T, Y36C, T53N, F91Y, T92Y, F93S
modifications: peptides N-terminally acetylated and C-terminally amidated
Molecule B5 registered a binding score of 2.5.

B6: CL-510433 (antibody, V domains shown)
VH: QVQLVESGGGVVQPGRSLRLSCVASGFTFSSYGMHWVRQAPGKGLEWVAVIWYDGSNKYYADSVKGRFTVSRDNSKNTLYLQMNSLRAEDTAVYYCARVYYYGSGSYSPYYYALDVWGHGTTVTVSS
VL: EIVMTQSPATLSVSPGERATLSCRASQSISSNLAWYQQKPGQAPRLLIYGASIRATGIPARFSGSGSGTEFTLSISILQSEDFAIYYCQQYNNWWTFGQGTKVEIK
modifications: peptides N-terminally acetylated and C-terminally amidated
Consider B6, for which the binding score is 1.76.

B7: CL-449759 (antibody, V domains shown)
VH: QVHLVESGGGVVQPGESQRLSCAASGFTFSNYGMHWVRQAPGKGLEWVALIWYDGSNKFYADSVKGRFTISRDNSKNTLYLHMNSLRAEDTAMYYCAKVPNWNDDKYTMDVWGQGTTVTVTS
VL: not shown
modifications: peptides N-terminally acetylated and C-terminally amidated
Molecule B7 displayed a binding score of 2.4.

B8: CL-510082 (antibody, V domains shown)
VH: QVQLVESGGGVVQPGKSLRLSCVASGFTFSNNGMHWIRQAPGKGLEWVAIIWYDGSNKFYADSVKGRFTISRDNSHNTLYLQMNSLRAEDTAVYYCARDRMFGSGTWNYFDPWGQGTLVTVSS
VL: EIVLTQSPATLSLSPGERATLSCRASQSVSTYLAWYQQKPGQAPRLLIYDASNRATGIPARFSGSGSGTDFTLTISSLEPEDFAVYYCQQRSYWWTFGQGTKVEIK
modifications: peptides N-terminally acetylated and C-terminally amidated
For the molecule B8, the binding score was determined as 2.38.

B9: Ky311 (antibody, V domains shown)
VH: QMHLVESGGGVVQPGRSLRLSCVASGFTFNNHGMHWVRQAPGKGLEWVAVIWHDGSNKFYADSVNGRFIVSRDNSKNTLYLHMNSLRAEDTAVYYCARDFFVSGSYNYFDPWGQGTLVTVSS
VL: B8 VL with A9V, T31N, S52A, I58T, Y87F, Y93K, W95F, Q99P, V103L, E104D
modifications: peptides N-terminally acetylated and C-terminally amidated
The molecule B9 showed a binding score of 2.22.

B10: CL-453181 (antibody, V domains shown)
VH: QVQLVESGGGVVQPGRSLRLSCAASGFTFSYYGMHWVRQAPGKGLEWVSIIWYDGSNKFYADSVKGRFTISRDNSKDTLYLEMNSLRAEDTAVYYCARVEFYNGSGRDFYYGLDVWGQGTTVTVSS
VL: EIVMTQSPATLSVSPGEGATLSCRASQSVSSNLAWYQQKPGQAPRLLISGASTRATGVPARFSGSGSGTEFALTISSLQSEDFAVYYCQQYSKLWTFGQGTKVEIK
modifications: peptides N-terminally acetylated and C-terminally amidated
Molecule B10 came in with a binding score of 2.6.

B11: CL-531271 (antibody, V domains shown)
VH: QVQLVESGGGEVQPGRSLRLSCAASGFTFSNYGMHWVRQAPGKGLEWVALIWYDGNNKFYADSVNGRFTISRDNSNNTLYLQMNSLRAEDTGVYYCARSFYYVSGNFFDYWGQGTLVTVSS
VL: DIPMTQSPSSVSASVGDRVTITCRASQGISTWLAWYQQKPGKAPKFLIYAASSLQSGVPSRFSGSGSGTDFTLTIYSLQPEDFATYYCQQGNSFPWTFGQGTKVEIK
modifications: peptides N-terminally acetylated and C-terminally amidated
B11 returned a binding score of 2.36.

B12: CL-512191 (antibody, V domains shown)
VH: QVQLVESGGGVVQPGRSLRLSCAASGFTFSNYAMHWVRQAPGKGLEWVAVIWYDGSNKYYADSVKGRFTISRDDSKNTLYLQMNSLRAEDTAVYYCARDKGYRYGFNWFDPWGQGTLVTVSS
VL: QSVLTQPPSVSGAPGQRVTISCTGSSSNIGAGYDVHWYQKLPGTAPKLLIFSNSNRPSGVPDRFSGSKSGTSASLAITGLQAEDEADYYCQSYDSSLSGSRVFGGGTKLTVL
modifications: peptides N-terminally acetylated and C-terminally amidated
On to B12, for which the binding score stood at 2.31.

B13: CL-444592 (antibody, V domains shown)
VH: QVQLVESGGGVVQPGRSLRLSCAASGFTFSSYGMHWVRQAPGKGLEWVAVIWYDGSNKYYADSVKGRFTISRDNSKNTLYLQMNSLRAEDTAVYYCARDGNWNYNYYYGMDVWGQGTTVTVSS
VL: DIQLTQSPSFLSASVGDRVTITCWASQGISSYLAWYQQKPGKAPKLLIYAASTLQSGVPSRFSGSGSGTEFTLTISSLQPEDFATYYCQQLNSYPPTFGQGTRLEIK
modifications: peptides N-terminally acetylated and C-terminally amidated
Molecule B13 registered a binding score of 1.5.

B14: CL-458015 (antibody, V domains shown)
VH: QVHLVESGGGVVQPGRSLRLSCAASGFTFSNYGMHWVRQAPGKGLDWVAIIWYDGSNKFYADSVQGRFTISRDNSKNTLYLQMNSLRAEDTAVYYCAKVQDLLGVPSTLGDHYTTDVWGQGTSVTVSS
VL: DIQMTQSPSTLSASVGDRITITCRASQSINDWLAWYQQKAGKAPKLLIYKASSLESGVPSRFSGSGSGTDFTLTISSLQTDDFAIYYCQQYNHYWTFGQGTKVEIK
modifications: peptides N-terminally acetylated and C-terminally amidated
Consider B14, for which the binding score stood at 2.2.

B15: CL-437492 (antibody, V domains shown)
VH: QEQLVESGGGVVQPGNSLRLSCVASGFTFSNHGMHWVRQAPGKGLEWVAIIWYDGSQKFYSDSVKGRFTISRDNSKNTLYLQMNSLRAEDTAIYYCARVDWSGNDWGWFDPWGQGTLVTVSS
VL: EIVLTQSPDTLSLSPGERATLSCRASQTLSSRHLAWYQQKPGQAPRLLIYGASSRATGIPDRFSGSGSGTDFTLTINRLEPEDFAVFYCQQYGRLWTFGQGTKVEIK
modifications: peptides N-terminally acetylated and C-terminally amidated
As for B15, the binding score turned out to be 2.2.

B16: CL-512508 (antibody, V domains shown)
VH: QVQLVESGGGVVQPGTSLRLSCGASGFTFSSYGMHWVRQAPGKGLEWVAIIWYDGNNKYYADSVKGRFTISRDNSKNTLYLQMNSLRAEDTAVYYCAKVGQFSTSSWGAFDIWGQGTMVTVSS
VL: B15 VL with D9G, S12P, T28S, L29V, R32S, H33Q, G58A, N77S, F87Y, G93S
modifications: peptides N-terminally acetylated and C-terminally amidated
Consider B16, for which the binding score came out at 2.01.
